The results in this text go back to patent publication US11278600B2, “Human alpha-galactosidase variants” (Codexis, Inc., priority 2014, dated 2022).

Format in all cases: biochemical
Series [1] in a line: HTP-analysis of yeast culture supernatants, no challenge (MUGal hydrolysis). Conditions: activity of the variant/activity of WT GLA (SEQ ID NO: 5), yeast supernatant. The essentials:
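GLA variants expressed in yeast INVSc1, secreted into SD-Ura broth over 66-84 h at 30° C; clarified supernatants tested without challenge. Supernatant mixed with McIlvaine buffer pH 4.8 and 2 mM MUGal (citrate/KCl, pH 4.6), 37° C for 30-180 min, carbonate-quenched, fluorescence Ex 355/Em 448 nm.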

Series [2] can be described thus: HTP-analysis of supernatants pretreated with base (MUGal hydrolysis). The conditions noted are these: challenge at pH 7.1; activity of the variant/activity of WT GLA (SEQ ID NO: 5); yeast supernatant. The method in brief:
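GLA variants were secreted by transformed INVSc1 yeast grown 66-84 h at 30° C. Supernatants were exposed to neutral-to-basic buffers (pH 7.0-9.7) at 37° C for 1-18 h, then assayed with MUGal in acidic citrate/McIlvaine buffer, with fluorescence read after quenching.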

Series [3] is described as follows: HTP-analysis of supernatants pretreated with acid (MUGal hydrolysis). Conditions: challenge at pH 4.2; activity of the variant/activity of WT GLA (SEQ ID NO: 5); yeast supernatant. The method in brief: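 MUGal hydrolysis was tracked by fluorescence (Ex 355 nm, Em 448 nm) after a 30-180 min reaction at 37° C. in pH 4.8 McIlvaine/citrate buffer, stopped with 1 M sodium carbonate. Beforehand, yeast (INVSc1) culture supernatants carrying GLA variants were held 1-3 h at 37° C. in acidic McIlvaine buffer, pH 3.3-4.3.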

Substitutions are numbered along the chain they refer to.

B1: 135 (protein)
chain: LDNGLARTPTMGWLHWERFMCNLDCQEEPDSCISEKLFMEMAELMVSEGWKDAGYEYLCIDDCWMAPQRDSEGRLQADPQRFPHGIRQLANYVHSKGLKLGIYADVGNKTCAGFPGSFGYYDIDAQTFADWGVDLLKFDGCYCDSLENLADGYKHMSLALNRTGRSIVYSCEWPLYMWPFQKPNYTEIRSYCNHWRNFADIDDSWKSIKSILDWTSFNQERIVDVAGPGGWNDPDMLVIGNFGLSWNQQVTQMALWAIMAAPLFMSNDLRHISPQAKALLQDKDVIAINQDPLGKQGYQLRQGDNFEVWERPLSGLAWAVAMINRQEIGGPRSYTIAVASLGKGVACNPACFITQLLPVKRKLGFYEWDSRLRSHINPTGTVLLQLENTMQMSKDLLL
modifications: Synthetic Polypeptide sequence of Variant No. 135 of mature Human GLA
In the case of B1, in series [1], the “Relative Activity of GLA Variants After No Challenge (NC)” value is recorded as “++ (++ = >1.5 to 2.5 relative activity over WT GLA (SEQ ID NO: 5))”. In addition, in series [2], the “Relative Activity of GLA Variants After Challenge at pH 7.1” value (“Relative Activity … at pH 7.1” for short) is on record as “++ (++ = >1.5 to 2.5 relative activity over WT GLA (SEQ ID NO: 5))”. Moreover, the “Relative Activity of GLA Variants After Challenge at pH 4.2” value (“Relative Activity … at pH 4.2” for short) in series [3] is on record as “+++ (+++ = >2.5 relative activity over WT GLA (SEQ ID NO: 5))”.

B2: 143 (protein)
chain: B1 chain with Q80H, S190Q, D369T
modifications: Synthetic Polypeptide sequence of Variant No. 143 of mature Human GLA
Consider B2, for which the “Relative Activity of GLA Variants After No Challenge (NC)” value in series [1] is on record as “+ (+ = 0.5 to 1.5 relative activity over WT GLA (SEQ ID NO: 5))”. Also, the “Relative Activity … at pH 7.1” value in series [2] is on record as “+ (+ = 0.5 to 1.5 relative activity over WT GLA (SEQ ID NO: 5))”. Further, the “Relative Activity … at pH 4.2” value in series [3] was “+ (+ = 0.5 to 1.5 relative activity over WT GLA (SEQ ID NO: 5))”.

B3: 137 (protein)
chain: B1 chain with S190Q, Q302A, D369T
modifications: Synthetic Polypeptide sequence of Variant No. 13 of mature Human GLA
In the case of B3, in series [1], the “Relative Activity of GLA Variants After No Challenge (NC)” value is listed as “+ (+ = 0.5 to 1.5 relative activity over WT GLA (SEQ ID NO: 5))”. Also, in series [2], the “Relative Activity … at pH 7.1” value is given as “+ (+ = 0.5 to 1.5 relative activity over WT GLA (SEQ ID NO: 5))”. For the same molecule, in series [3], the “Relative Activity … at pH 4.2” value is “+ (+ = 0.5 to 1.5 relative activity over WT GLA (SEQ ID NO: 5))”.

B4: 141 (protein)
chain: B1 chain with S190Q, D369T, Q391G
modifications: Synthetic Polypeptide sequence of Variant No. 141 of mature Human GLA
Consider B4, for which the “Relative Activity of GLA Variants After No Challenge (NC)” value in series [1] is recorded as “+ (+ = 0.5 to 1.5 relative activity over WT GLA (SEQ ID NO: 5))”. Further, the “Relative Activity … at pH 7.1” value in series [2] is reported as “+ (+ = 0.5 to 1.5 relative activity over WT GLA (SEQ ID NO: 5))”. For the same molecule, in series [3], the “Relative Activity … at pH 4.2” value is given as “+ (+ = 0.5 to 1.5 relative activity over WT GLA (SEQ ID NO: 5))”.

B5: 37 (protein)
chain: B1 chain with D105A, S190Q, D369T
modifications: Synthetic Polypeptide sequence of Variant No. 37 of mature Human GLA
As to B5, the “Relative Activity of GLA Variants After No Challenge (NC)” value in series [1] is recorded as “+ (+ = 0.5 to 1.5 relative activity over WT GLA (SEQ ID NO: 5))”. Also, in series [2], the “Relative Activity … at pH 7.1” value is on record as “+ (+ = 0.5 to 1.5 relative activity over WT GLA (SEQ ID NO: 5))”. The “Relative Activity … at pH 4.2” value in series [3] is on record as “+ (+ = 0.5 to 1.5 relative activity over WT GLA (SEQ ID NO: 5))”.

B6: 136 (protein)
chain: B1 chain with S190Q, Q249A, D369T
modifications: Synthetic Polypeptide sequence of Variant No. 136 of mature Human GLA
Consider B6, for which the “Relative Activity of GLA Variants After No Challenge (NC)” value in series [1] is on record as “+ (+ = 0.5 to 1.5 relative activity over WT GLA (SEQ ID NO: 5))”. The “Relative Activity … at pH 7.1” value in series [2] is listed as “+ (+ = 0.5 to 1.5 relative activity over WT GLA (SEQ ID NO: 5))”. Besides, in series [3], the “Relative Activity … at pH 4.2” value was “+ (+ = 0.5 to 1.5 relative activity over WT GLA (SEQ ID NO: 5))”.

B7: 140 (protein)
chain: B1 chain with S190Q, D369T, Q385L
modifications: Synthetic Polypeptide sequence of Variant No. 140 of mature Human GLA
For the molecule B7, in series [1], the “Relative Activity of GLA Variants After No Challenge (NC)” value is on record as “++ (++ = >1.5 to 2.5 relative activity over WT GLA (SEQ ID NO: 5))”. In addition, the “Relative Activity … at pH 7.1” value in series [2] is “++ (++ = >1.5 to 2.5 relative activity over WT GLA (SEQ ID NO: 5))”. Further, in series [3], the “Relative Activity … at pH 4.2” value is on record as “++ (++ = >1.5 to 2.5 relative activity over WT GLA (SEQ ID NO: 5))”.

B8: 142 (protein)
chain: B1 chain with Q80A, S190Q, D369T
modifications: Synthetic Polypeptide sequence of Variant No. 142 of mature Human GLA
As to B8, the “Relative Activity of GLA Variants After No Challenge (NC)” value in series [1] is listed as “+ (+ = 0.5 to 1.5 relative activity over WT GLA (SEQ ID NO: 5))”. Besides, the “Relative Activity … at pH 7.1” value in series [2] is “+ (+ = 0.5 to 1.5 relative activity over WT GLA (SEQ ID NO: 5))”. Also, in series [3], the “Relative Activity … at pH 4.2” value is “+ (+ = 0.5 to 1.5 relative activity over WT GLA (SEQ ID NO: 5))”.

B9: 138 (protein)
chain: B1 chain with S190Q, D369T, Q385H
modifications: Synthetic Polypeptide sequence of Variant No. 138 of mature Human GLA
B9: the “Relative Activity of GLA Variants After No Challenge (NC)” value in series [1] is “++ (++ = >1.5 to 2.5 relative activity over WT GLA (SEQ ID NO: 5))”. In addition, in series [2], the “Relative Activity … at pH 7.1” value is given as “++ (++ = >1.5 to 2.5 relative activity over WT GLA (SEQ ID NO: 5))”. Moreover, the “Relative Activity … at pH 4.2” value in series [3] is given as “++ (++ = >1.5 to 2.5 relative activity over WT GLA (SEQ ID NO: 5))”.

B10: 144 (protein)
chain: B1 chain with Q80V, S190Q, D369T
modifications: Synthetic Polypeptide sequence of Variant No. 144 of mature Human GLA
With B10, the “Relative Activity of GLA Variants After No Challenge (NC)” value in series [1] is listed as “+ (+ = 0.5 to 1.5 relative activity over WT GLA (SEQ ID NO: 5))”. Moreover, in series [2], the “Relative Activity … at pH 7.1” value is on record as “+ (+ = 0.5 to 1.5 relative activity over WT GLA (SEQ ID NO: 5))”. Besides, the “Relative Activity … at pH 4.2” value in series [3] was “++ (++ = >1.5 to 2.5 relative activity over WT GLA (SEQ ID NO: 5))”.

B11: 145 (protein)
chain: B1 chain with Q88A, S190Q, D369T
modifications: Synthetic Polypeptide sequence of Variant No. 145 of mature Human GLA
In the case of B11, the “Relative Activity of GLA Variants After No Challenge (NC)” value in series [1] is recorded as “+ (+ = 0.5 to 1.5 relative activity over WT GLA (SEQ ID NO: 5))”. In addition, the “Relative Activity … at pH 7.1” value in series [2] is given as “+ (+ = 0.5 to 1.5 relative activity over WT GLA (SEQ ID NO: 5))”. Also, the “Relative Activity … at pH 4.2” value in series [3] was “+ (+ = 0.5 to 1.5 relative activity over WT GLA (SEQ ID NO: 5))”.

B12: 139 (protein)
chain: B1 chain with S190Q, D369T, Q385I
modifications: Synthetic Polypeptide sequence of Variant No. 139 of mature Human GLA
With B12, the “Relative Activity of GLA Variants After No Challenge (NC)” value in series [1] is “+ (+ = 0.5 to 1.5 relative activity over WT GLA (SEQ ID NO: 5))”. Besides, the “Relative Activity … at pH 7.1” value in series [2] is given as “+ (+ = 0.5 to 1.5 relative activity over WT GLA (SEQ ID NO: 5))”. Besides, the “Relative Activity … at pH 4.2” value in series [3] was “+ (+ = 0.5 to 1.5 relative activity over WT GLA (SEQ ID NO: 5))”.

B13: 146 (protein)
chain: B1 chain with Q88F, S190Q, D369T
modifications: Synthetic Polypeptide sequence of Variant No. 146 of mature Human GLA
As for B13, the “Relative Activity of GLA Variants After No Challenge (NC)” value in series [1] was “+ (+ = 0.5 to 1.5 relative activity over WT GLA (SEQ ID NO: 5))”. Besides, in series [2], the “Relative Activity … at pH 7.1” value is listed as “+ (+ = 0.5 to 1.5 relative activity over WT GLA (SEQ ID NO: 5))”. Further, the “Relative Activity … at pH 4.2” value in series [3] is “+ (+ = 0.5 to 1.5 relative activity over WT GLA (SEQ ID NO: 5))”.

B14: 147 (protein)
chain: B1 chain with Q88H, S190Q, D369T
modifications: Synthetic Polypeptide sequence of Variant No. 147 of mature Human GLA
B14: the “Relative Activity of GLA Variants After No Challenge (NC)” value in series [1] is recorded as “++ (++ = >1.5 to 2.5 relative activity over WT GLA (SEQ ID NO: 5))”. The “Relative Activity … at pH 7.1” value in series [2] is recorded as “++ (++ = >1.5 to 2.5 relative activity over WT GLA (SEQ ID NO: 5))”. The “Relative Activity … at pH 4.2” value in series [3] was “++ (++ = >1.5 to 2.5 relative activity over WT GLA (SEQ ID NO: 5))”.
